Results taken from publication PMC4359947.
Ends that are not written are not given here.

Target: MAGI-1 PDZ3 domain, Cy3-labelled, tag-free
Assay: FRET or BRET

Binder: GAIPVMIPAQSKDGSIV (also: Cy5 label (approximately 1 dye/peptide), site not given here) [CAR (CAR^Ex7) C-terminus, Cy5-labelled, tag-free]
- Kd: 2 nM
